Numbering of substitutions follows the chain as printed. Names may count otherwise.

B1: GLP-1-Fn7-COL18NC1 (ligand)
chain: HAEGTFTSDVSSYLEGQAAKEFIAWLVKGRGGGGSGGGGTPLSPPTNLHLEANPDTGVLTVSWERSTTPDITGYRITTTPTNGQQGNSLEEVVHADQSSCTFDNLSPGLEYNVSVYTVKDDKESVPISDTIIPAGGGSGGGASSGVRLWATRQAMLGQVHEVPEGWLIFVAEQEELYVRVQNGFRKVQLEARTPLPRG
B2: GLP-1(A8G/G22E)-Fn8-p246-COL18NC1 (ligand)
chain: HGEGTFTSDVSSYLEEQAAKEFIAWLVKGRGSGGGSGGGSGGGSGGGSGSGGAVPPPTDLRFTNIGPDTMRVTWAPPPSIDLTNFLVRYSPVKNEEDVAELSISPSDNAVVLTNLLPGTEYVVSVSSVYEQHESTPLRGRQKTGGGGSGGGSGSGSESGSGGGSTSSGTGSETESPGSGSESGSGPSSAGSGSGSESGSGSGSSGPGSTGGSGSESGSGPGSSGTGGTATGSGSESGSGPGSSGPGSTGSGSGSESGSGSGSSGTGSTGGSGSESGSGPGSPRPGSTGTGSGSESGSGPGSSERGSAGGSGSESGSGTSESSASGSTGGSGSESGSGSESGSGSGSESGSGPESPGSGGSGSESGSGTSGSTGSGSESGSGGGSGGGSGGGASSGVRLWATRQAMLGQVHEVPEGWLIFVAEQEELYVRVQNGFRKVQLEARTPLPRG
B3: GLP-1(A8S/G22E)-Fn8-p246-COL18NC1 (ligand)
chain: B2 chain with G2S
B4: GLP-1(A8G/G22E/R36G)-Fn8-p246-COL18NC1 (ligand)
chain: B2 chain with R30G
B5: GLP-1(A8G/G22E/R36S)-Fn8-p246-COL18NC1 (ligand)
chain: B2 chain with R30S
B6: GLP-1(A8V/G22E)-Fn8-p246-COL18NC1 (ligand)
chain: B2 chain with G2V
B7: GLP-1(A8G/G22E/R36G)-Fn8-p271-COL18NC1 (ligand)
chain: HGEGTFTSDVSSYLEEQAAKEFIAWLVKGGGSGGGSGGGSGGGSGGGSGSGGAVPPPTDLRFTNIGPDTMRVTWAPPPSIDLTNFLVRYSPVKNEEDVAELSISPSDNAVVLTNLLPGTEYVVSVSSVYEQHESTPLRGRQKTGGGGSGGGSGGSGSESGSGGGSTSSGTGSETESPGGSGSESGSGGPSSAGSGGSGSESGSGGSGSSGPGSTGGGSGSESGSGGPGSSGTGGTATGGSGSESGSGGPGSSGPGSTGSGGSGSESGSGGSGSSGTGSTGGGSGSESGSGGPGSPRPGSTGTGGSGSESGSGGPGSSERGSAGGGSGSESGSGGTSESSASGSTGGGSGSESGSGGSESGSGGSGSESGSGGPESPGSGGGSGSESGSGGTSGSTGGSGSESGSGGGGSGGGSGGGASSGVRLWATRQAMLGQVHEVPEGWLIFVAEQEELYVRVQNGFRKVQLEARTPLPRG
B8: GLP-1-Fn8-COL18NC1 (ligand)
chain: HAEGTFTSDVSSYLEGQAAKEFIAWLVKGRGGGGSGGGGSAVPPPTDLRFTNIGPDTMRVTWAPPPSIDLTNFLVRYSPVKNEEDVAELSISPSDNAVVLTNLLPGTEYVVSVSSVYEQHESTPLRGRQKTGGGGSGGGASSGVRLWATRQAMLGQVHEVPEGWLIFVAEQEELYVRVQNGFRKVQLEARTPLPRG
B9: GLP-1(A8V/G22E)-Fn8-COL18NC1 (ligand)
chain: B8 chain with A2V, G16E
B10: GLP-1(A8G/G22E/R36G)-Fn8-COL18NC1 (ligand)
chain: B8 chain with A2G, G16E, R30G
B11: GLP-1(A8S/G22E)-Fn8-COL18NC1 (ligand)
chain: B8 chain with A2S, G16E
B12: GLP-1(A8G/G22E)-Fn8-COL18NC1 (ligand)
chain: B8 chain with A2G, G16E
B13: GLP-1(A8G/G22E/R36G)-Fn8-p285-COL18NC1 (ligand)
chain: HGEGTFTSDVSSYLEEQAAKEFIAWLVKGGGSGGGSGGGSGGGSGGGSGSGGAVPPPTDLRFTNIGPDTMRVTWAPPPSIDLTNFLVRYSPVKNEEDVAELSISPSDNAVVLTNLLPGTEYVVSVSSVYEQHESTPLRGRQKTGGGGSGGGSGSGSESGSGGGSTSSGTGSETESPGSGSESGSGPSSAGSGSGSESGSGSGSSGPGSTGGSGSESGSGPGSSGTGGTATGSGSESGSGPGSSGPGSTGSGSGSESGSGSGSSGTGSTGGSGSESGSGPGSPRPGSTGTGSGSESGSGPGSSERGSAGGSGSESGSGTSESSASGSTGGSGSESGSGSESGSGSGSESGSGPESPGSGGSGSESGSGTSGSTGSGSESGSGPGSSGPGSTGSGSGSESGSGSGSSGTGSTGGSGSESGSGGGSGGGSGGGASSGVRLWATRQAMLGQVHEVPEGWLIFVAEQEELYVRVQNGFRKVQLEARTPLPRG
B14: GLP-1(A8G/G22E/R36G)-Fn8-p246-COL15NC1 (ligand)
chain: HGEGTFTSDVSSYLEEQAAKEFIAWLVKGGGSGGGSGGGSGGGSGGGSGSGGAVPPPTDLRFTNIGPDTMRVTWAPPPSIDLTNFLVRYSPVKNEEDVAELSISPSDNAVVLTNLLPGTEYVVSVSSVYEQHESTPLRGRQKTGGGGSGGGSGSGSESGSGGGSTSSGTGSETESPGSGSESGSGPSSAGSGSGSESGSGSGSSGPGSTGGSGSESGSGPGSSGTGGTATGSGSESGSGPGSSGPGSTGSGSGSESGSGSGSSGTGSTGGSGSESGSGPGSPRPGSTGTGSGSESGSGPGSSERGSAGGSGSESGSGTSESSASGSTGGSGSESGSGSESGSGSGSESGSGPESPGSGGSGSESGSGTSGSTGSGSESGSGGGSGGGSGGNLVTAFSNMDDMLQKAHLVIEGTFIYLRDSTEFFIRVRDGWKKLQLGELIPIPA
B15: GLP-1(A8G/G22E/R36G)-Fn8-p245-COL18NC1 (ligand)
chain: HGEGTFTSDVSSYLEEQAAKEFIAWLVKGGGSGGGSGGGSGGGSGGGSGSGGAVPPPTDLRFTNIGPDTMRVTWAPPPSIDLTNFLVRYSPVKNEEDVAELSISPSDNAVVLTNLLPGTEYVVSVSSVYEQHESTPLRGRQKTGGGGSGGGSGSGSTSESGGSTSSGTGSETESPGSGSESTSGPSSAGSGSTSESGSGSGSSGPGSTGGSTSGSESGPGSSGTGGTATGSESGSTSGPGSSGPGSTGSGSTSESGSGSGSSGTGSTGGSESGSTSGPGSPRPGSTGTGSTSGSESGPGSSERGSAGGSESTSGSGTSESSASGSTGGSTSGSESGSESGSGSTSESGSGPESPGSGGSGSTSESGTSGSTGSESTSGSGGGSGGGSGGGASSGVRLWATRQAMLGQVHEVPEGWLIFVAEQEELYVRVQNGFRKVQLEARTPLPRG
B16: GLP-1(A8G/G22E/R36G)-TNCfn3-p246-COL18NC1 (ligand)
chain: HGEGTFTSDVSSYLEEQAAKEFIAWLVKGGGSGGGSGGGSGGGSGGGSGSGGRLDAPSQIEVKDVTDTTALITWFKPLAEIDGIELTYGIKDVPGDRTTIDLTEDENQYSIGNLKPDTEYEVSLISRRGDMSSNPAKETFTTGGGGSGGGSGSGSESGSGGGSTSSGTGSETESPGSGSESGSGPSSAGSGSGSESGSGSGSSGPGSTGGSGSESGSGPGSSGTGGTATGSGSESGSGPGSSGPGSTGSGSGSESGSGSGSSGTGSTGGSGSESGSGPGSPRPGSTGTGSGSESGSGPGSSERGSAGGSGSESGSGTSESSASGSTGGSGSESGSGSESGSGSGSESGSGPESPGSGGSGSESGSGTSGSTGSGSESGSGGGSGGGSGGGASSGVRLWATRQAMLGQVHEVPEGWLIFVAEQEELYVRVQNGFRKVQLEARTPLPRG
B17: GLP1(A8G/G22E/R36G)-Fn8-p246-ACRP30 (ligand)
chain: HGEGTFTSDVSSYLEEQAAKEFIAWLVKGGGSGGGSGGGSGGGSGGGSGSGGAVPPPTDLRFTNIGPDTMRVTWAPPPSIDLTNFLVRYSPVKNEEDVAELSISPSDNAVVLTNLLPGTEYVVSVSSVYEQHESTPLRGRQKTGGGGSGGGSGSGSESGSGGGSTSSGTGSETESPGSGSESGSGPSSAGSGSGSESGSGSGSSGPGSTGGSGSESGSGPGSSGTGGTATGSGSESGSGPGSSGPGSTGSGSGSESGSGSGSSGTGSTGGSGSESGSGPGSPRPGSTGTGSGSESGSGPGSSERGSAGGSGSESGSGTSESSASGSTGGSGSESGSGSESGSGSGSESGSGPESPGSGGSGSESGSGTSGSTGSGSESGSGGGSGGGSGGVYRSAFSVGLETRVTVPNVPIRFTKIFYNQQNHYDGSTGKFYCNIPGLYYFSYHITVYMKDVKVSLFKKDKAVLFTYDQYQEKNVDQASGSVLLHLEVGDQVWLQVYGDGDHNGLYADNVNDSTFTGFLLYHDTN
B18: GLP-1(A8G/G22E/R36G)-Fn8-p246-COL19NC2 (ligand)
chain: HGEGTFTSDVSSYLEEQAAKEFIAWLVKGGGSGGGSGGGSGGGSGGGSGSGGAVPPPTDLRFTNIGPDTMRVTWAPPPSIDLTNFLVRYSPVKNEEDVAELSISPSDNAVVLTNLLPGTEYVVSVSSVYEQHESTPLRGRQKTGGGGSGGGSGSGSESGSGGGSTSSGTGSETESPGSGSESGSGPSSAGSGSGSESGSGSGSSGPGSTGGSGSESGSGPGSSGTGGTATGSGSESGSGPGSSGPGSTGSGSGSESGSGSGSSGTGSTGGSGSESGSGPGSPRPGSTGTGSGSESGSGPGSSERGSAGGSGSESGSGTSESSASGSTGGSGSESGSGSESGSGSGSESGSGPESPGSGGSGSESGSGTSGSTGSGSESGSGGGSGGGSGGGIPADAVSFEEIKKYINQEVLRIFEERMAVFLSQLKLPAAMLAAQAYGRP

The assay deals with human GLP-1 receptor (GLP-1R) (human, UniProt P43220 24-463). The experiment in a line: cell-based or functional assay.
With B1, the “EC50 (nM) measured by cAMP assay” value is 2.2 nM.

For B2, the “EC50 (nM) measured by cAMP assay” value was found to be 0.5 nM.

As for B3, the “EC50 (nM) measured by cAMP assay” value was 0.6 nM.

As to B4, the “EC50 (nM) measured by cAMP assay” value worked out at 0.4 nM.

On to B5, for which the “EC50 (nM) measured by cAMP assay” value was determined as 0.4 nM.

Consider B6, for which the “EC50 (nM) measured by cAMP assay” value is 0.5 nM.

Turning to B7, the “EC50 (nM) measured by cAMP assay” value amounted to 0.4 nM.

For the molecule B8, the “EC50 (nM) measured by cAMP assay” value amounted to 2.1 nM.

On to B9, for which the “EC50 (nM) measured by cAMP assay” value is 1.3 nM.

As to B10, the “EC50 (nM) measured by cAMP assay” value turned out to be 1.2 nM.

As to B11, the “EC50 (nM) measured by cAMP assay” value is 1.3 nM.

With B12, the “EC50 (nM) measured by cAMP assay” value came out at 1.3 nM.

Take B13: the “EC50 (nM) measured by cAMP assay” value came out at 0.4 nM.

As for B14, the “EC50 (nM) measured by cAMP assay” value amounted to 0.5 nM.

For B15, the “EC50 (nM) measured by cAMP assay” value stood at 0.5 nM.

Take B16: the “EC50 (nM) measured by cAMP assay” value worked out at 0.5 nM.

Consider B17, for which the “EC50 (nM) measured by cAMP assay” value was 0.6 nM.

On to B18, for which the “EC50 (nM) measured by cAMP assay” value was found to be 0.6 nM.

The values are drawn from US10246503B2, “Method of improving the pharmacokinetic profile of a therapeutic polypeptide and the use thereof” (BEIJING ANXINHUAIDE BIOTECH. CO., LTD, priority 2012, dated 2019).
